Assay results from FireProtDB (doi:10.1038/s41598-020-57873-3).

B1: N142P|I144P|N377P, Q8GB52 (parent)
chain: MLKKVLSCCIAATFGIYSASSLAQSSVINSTENSQQPIAPLVLASSDDAITDRYIVVLKQPQMLMNDAAGLQQFTQQTVGLMANSFSIKTDDVFDSSIIGFVANLDALQLKQLRRDSRVEYIEQDQILSIDPVVSNEAVQSNAIWGLDRIDQRNLPLDRNYNANFDGFGVTAYVIDTGVNNNHEEFGGRSVSGYDFVDNDADSSDCNGHGTHVAGTIGGSQYGVAKNVNIVGVRVLSCSGSGTTSGVISGVDWVAQNASGPSVANMSLGGGQSTALDSAVQGAIQSGVSFMLAAGNSNADACNTSPARVPSGVTVGSTTSSDSRSSFSNWGSCVDLFAPGSQIKSAWYDGGYKTISGTSMATPHVAGVAALYLQENNGLTPLQLTGLLNSRASENKVSDTRGTTNKLLYSLADSGCEPDCGGPTPGPDPDGKLVSGVPVNGLSGSRGQKDYFYMDLQQGQQLTVVTIGGTGDADLYLRFGDKPTLNTWDCRPYRSGNSETCTVNVTQSGRYHVMLNAYSAYSGLTLQANF

Variants of: B1
Settings: Vibrio sp. PA-44, pH 8.6, Thermal, structure 1SH7, whole UniProt chain shown
[1] = CD, Glycine 25 mM, NaCl and CaCl2 100 mM and 15 mM
[2] = CD, glycine, Nacl / Cacl2 100000 / 15000, transition: 2, reversible: no
[3] = DSC, Glycine 25 mM, NaCl and CaCl2 100 mM and 15 mM
[4] = DSC, glycine, Nacl / Cacl2 100000 / 15000, transition: 2, reversible: no

N142P I144P N377P
Tm [1]: 68.8 °C
change of melting temperature, mutant - wild type (higher = more stable) [1]: 6.9 °C
Tm [2]: 68.8 °C
change of melting temperature, mutant - wild type (higher = more stable) [2]: 6.9 °C
Tm [3]: 72 °C
change of melting temperature, mutant - wild type (higher = more stable) [3]: 8.1 °C
unfolding enthalpy (calorimetric) [3]: 163 kcal/mol
Tm [4]: 72 °C
change of melting temperature, mutant - wild type (higher = more stable) [4]: 8.1 °C
unfolding enthalpy (calorimetric) [4]: 162 kcal/mol

N142P I144P
Tm [1]: 67.8 °C
change of melting temperature, mutant - wild type (higher = more stable) [1]: 5.9 °C
Tm [2]: 67.8 °C
change of melting temperature, mutant - wild type (higher = more stable) [2]: 5.9 °C
Tm [3]: 72 °C
change of melting temperature, mutant - wild type (higher = more stable) [3]: 8.1 °C
unfolding enthalpy (calorimetric) [3]: 155 kcal/mol
Tm [4]: 72 °C
change of melting temperature, mutant - wild type (higher = more stable) [4]: 8.1 °C
unfolding enthalpy (calorimetric) [4]: 154 kcal/mol

T404P
Tm [1]: 61.6 °C
change of melting temperature, mutant - wild type (higher = more stable) [1]: -0.3 °C
Tm [3]: 64.5 °C
change of melting temperature, mutant - wild type (higher = more stable) [3]: 0.6 °C
unfolding enthalpy (calorimetric) [3]: 108 kcal/mol
Tm [4]: 64.5 °C
change of melting temperature, mutant - wild type (higher = more stable) [4]: 0.6 °C
unfolding enthalpy (calorimetric) [4]: 108 kcal/mol

I144P
Tm [1]: 65.1 °C
change of melting temperature, mutant - wild type (higher = more stable) [1]: 3.2 °C
Tm [2]: 65.1 °C
change of melting temperature, mutant - wild type (higher = more stable) [2]: 3.2 °C
Tm [3]: 65.7 °C
change of melting temperature, mutant - wild type (higher = more stable) [3]: 1.8 °C
unfolding enthalpy (calorimetric) [3]: 137 kcal/mol
Tm [4]: 65.7 °C
change of melting temperature, mutant - wild type (higher = more stable) [4]: 1.8 °C
unfolding enthalpy (calorimetric) [4]: 136 kcal/mol

N377P
Tm [2]: 60.7 °C
change of melting temperature, mutant - wild type (higher = more stable) [2]: -1.2 °C
Tm [3]: 63.6 °C
change of melting temperature, mutant - wild type (higher = more stable) [3]: -0.3 °C
unfolding enthalpy (calorimetric) [3]: 133 kcal/mol
Tm [4]: 63.6 °C
change of melting temperature, mutant - wild type (higher = more stable) [4]: -0.3 °C
unfolding enthalpy (calorimetric) [4]: 133 kcal/mol

N142P I144P T404P
Tm [1]: 69.2 °C
change of melting temperature, mutant - wild type (higher = more stable) [1]: 7.3 °C
Tm [2]: 69.2 °C
change of melting temperature, mutant - wild type (higher = more stable) [2]: 7.3 °C
Tm [3]: 73.6 °C
change of melting temperature, mutant - wild type (higher = more stable) [3]: 9.7 °C
unfolding enthalpy (calorimetric) [3]: 167 kcal/mol
Tm [4]: 73.6 °C
change of melting temperature, mutant - wild type (higher = more stable) [4]: 9.7 °C
unfolding enthalpy (calorimetric) [4]: 166 kcal/mol

N142P
Tm [1]: 64.8 °C
change of melting temperature, mutant - wild type (higher = more stable) [1]: 2.9 °C
Tm [3]: 66.8 °C
change of melting temperature, mutant - wild type (higher = more stable) [3]: 2.9 °C
unfolding enthalpy (calorimetric) [3]: 128 kcal/mol
Tm [4]: 66.8 °C
change of melting temperature, mutant - wild type (higher = more stable) [4]: 2.9 °C
unfolding enthalpy (calorimetric) [4]: 127 kcal/mol

N142P I144P N377P T404P
Tm [1]: 72.1 °C
change of melting temperature, mutant - wild type (higher = more stable) [1]: 10.2 °C
Tm [2]: 72.1 °C
change of melting temperature, mutant - wild type (higher = more stable) [2]: 10.2 °C
Tm [3]: 77.2 °C
change of melting temperature, mutant - wild type (higher = more stable) [3]: 13.3 °C
unfolding enthalpy (calorimetric) [3]: 164 kcal/mol
Tm [4]: 77.2 °C
change of melting temperature, mutant - wild type (higher = more stable) [4]: 13.3 °C
unfolding enthalpy (calorimetric) [4]: 163 kcal/mol
